Key:
Assay in all cases: GST pull-down (autoradiography, quantified)
[1] = target: radiolabeled myc-Sequoia-WT; settings: percentage binding relative to 10% of the input; 3 independent experiments; parent: est. 25; read off a plot
[2] = target: radiolabeled GFP-Sequoia-WT; settings: parent: est. 25; read off a plot
[3] = target: GST-Atg8a-LDS mutant (Y49A) (UniProt Q9W2S2); settings: parent: est. 25, read off a plot
[4] = target: GST-Atg8a-WT (UniProt Q9W2S2); settings: parent: est. 25, read off a plot
[5] = target: GST-Atg8a K47Q (UniProt Q9W2S2); settings: percentage binding relative to 10% of the input; 3 independent experiments; parent: est. 25; read off a plot
[6] = target: GST-Atg8a K46Q Y49A; settings: percentage binding relative to 10% of the input; 3 independent experiments; parent: est. 25; read off a plot
[7] = target: GST-Atg8a K48Q (UniProt Q9W2S2); settings: percentage binding relative to 10% of the input; 3 independent experiments; parent: est. 25; read off a plot
[8] = target: GST-Atg8a K46Q (UniProt Q9W2S2); settings: percentage binding relative to 10% of the input; 3 independent experiments; parent: est. 25; read off a plot
[9] = percentage binding relative to 10% of the input, 3 independent experiments

Chain of GST-Atg8a-LDS mutant (Y49A) (Q9W2S2 entry or part of it Y49A | Y49A): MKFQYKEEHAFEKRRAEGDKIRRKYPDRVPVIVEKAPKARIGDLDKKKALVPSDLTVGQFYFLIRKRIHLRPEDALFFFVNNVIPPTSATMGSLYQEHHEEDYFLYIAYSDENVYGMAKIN
Chain of GST-Atg8a-WT (Q9W2S2 entry or part of it): as the sequence (Q9W2S2 entry or part of it Y49A | Y49A) above, with A49Y counted along it
Chain of GST-Atg8a K47Q (Q9W2S2 entry or part of it K47Q | K47Q): as the sequence (Q9W2S2 entry or part of it Y49A | Y49A) above, with K47Q, A49Y counted along it
Chain of GST-Atg8a K48Q (Q9W2S2 entry or part of it K48Q | K48Q): as the sequence (Q9W2S2 entry or part of it Y49A | Y49A) above, with K48Q, A49Y counted along it
Chain of GST-Atg8a K46Q (Q9W2S2 entry or part of it K46Q | K46Q): as the sequence (Q9W2S2 entry or part of it Y49A | Y49A) above, with K46Q, A49Y counted along it

GST-Atg8a-WT (from UniProt Q9W2S2) K46Q was tested, and the response [1] was 25 % Binding.

For GST-Atg8a-WT (from UniProt Q9W2S2) Y49A, the response [2] was 8 % of binding and the response [1] was 2.7 % Binding.

In the case of “m9; m1 Sequoia:Y313A; Sequoia:I316A; Atg8a:Y49A”, the response [3] is reported as 5.6 % of binding.

With “radiolabeled GFP-Sequoia-WT Y313A; I316A” the response [4] was 14 % of binding.

In the case of GST-Atg8a-WT (from UniProt Q9W2S2) K47Q, the response [1] is reported as 24 % Binding.

GST-Atg8a-WT (from UniProt Q9W2S2) K48Q was tested, and the response [1] was 12 % Binding.

With “m11; m1 Sequoia:Y313A; Sequoia:I316A; Atg8a:Y49A” the response [3, 9] was 2.9 % Binding.

With “GST-Atg8a-WT (from UniProt Q9W2S2) K46Q; Y49A” the response [1] was 3.6 % Binding.

“m11; m1 Sequoia:Y313A; Sequoia:I316A; Atg8a:K47Q” showed a response [5] of 12 % Binding.

In the case of “radiolabeled myc-Sequoia-WT Y313A; I316A”, the response [4, 9] is reported as 14 % Binding.

Work on “m11; m1 Sequoia:Y313A; Sequoia:I316A; Atg8a:K46Q; Atg8a:Y49A” yielded a response [6] of 3.2 % Binding.

In the case of “m11; m1 Sequoia:Y313A; Sequoia:I316A; Atg8a:K48Q”, the response [7] is reported as 8 % Binding.

In the case of “m11; m1 Sequoia:Y313A; Sequoia:I316A; Atg8a:K46Q”, the response [8] is reported as 18 % Binding.
